Results taken from US5493008A, “Two non-contiguous regions contribute to nidogen binding to a single EGF-like motif of the laminin γ1 chain” (The University Of Virginia Patent Foundation, priority 1994, dated 1996).
Like-named read-outs stand apart in the source and are kept apart here. Where no end group is shown, it is not given here. The star is where a group is joined. Succinimide(1-Et,3-yl) = CCN1C(=O)CC(*)C1=O

Experiments:
[1] = target: T1, recombinant nidogen (Mus musculus (Mouse)) (UniProt P10493); experiment: radioligand competition assay
T1 sequence: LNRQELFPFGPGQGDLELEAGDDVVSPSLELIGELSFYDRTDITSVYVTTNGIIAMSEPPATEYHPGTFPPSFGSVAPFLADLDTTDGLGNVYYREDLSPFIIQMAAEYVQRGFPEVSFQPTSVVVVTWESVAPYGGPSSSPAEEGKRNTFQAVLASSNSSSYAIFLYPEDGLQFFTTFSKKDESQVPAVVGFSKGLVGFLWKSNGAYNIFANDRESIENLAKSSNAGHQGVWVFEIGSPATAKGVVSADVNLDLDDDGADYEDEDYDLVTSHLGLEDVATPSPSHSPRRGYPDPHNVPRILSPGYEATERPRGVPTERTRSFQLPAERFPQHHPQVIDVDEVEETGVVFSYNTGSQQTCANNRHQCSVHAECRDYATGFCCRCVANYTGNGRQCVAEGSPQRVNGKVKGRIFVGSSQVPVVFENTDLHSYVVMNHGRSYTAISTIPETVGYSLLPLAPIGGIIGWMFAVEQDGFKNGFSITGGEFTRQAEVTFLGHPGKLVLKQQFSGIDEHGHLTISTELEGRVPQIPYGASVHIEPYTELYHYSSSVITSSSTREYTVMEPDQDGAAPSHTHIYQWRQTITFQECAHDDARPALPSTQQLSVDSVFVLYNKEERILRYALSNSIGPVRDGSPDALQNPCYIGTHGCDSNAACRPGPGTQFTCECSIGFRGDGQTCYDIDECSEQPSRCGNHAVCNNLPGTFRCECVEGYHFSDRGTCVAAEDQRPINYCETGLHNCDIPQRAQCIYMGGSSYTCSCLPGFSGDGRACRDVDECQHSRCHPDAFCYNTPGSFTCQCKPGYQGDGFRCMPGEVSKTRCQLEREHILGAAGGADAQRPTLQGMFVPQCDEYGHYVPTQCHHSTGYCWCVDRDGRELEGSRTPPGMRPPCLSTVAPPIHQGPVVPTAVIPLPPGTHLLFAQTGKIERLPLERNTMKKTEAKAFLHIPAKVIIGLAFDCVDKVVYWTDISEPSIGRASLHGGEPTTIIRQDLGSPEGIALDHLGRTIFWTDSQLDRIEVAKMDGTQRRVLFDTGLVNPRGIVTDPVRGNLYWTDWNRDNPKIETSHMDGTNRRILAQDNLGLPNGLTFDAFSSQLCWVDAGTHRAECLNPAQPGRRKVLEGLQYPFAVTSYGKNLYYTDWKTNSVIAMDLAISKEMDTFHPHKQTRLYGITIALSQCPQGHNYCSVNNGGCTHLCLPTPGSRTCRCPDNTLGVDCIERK

[2] = target: T1, recombinant nidogen (Mus musculus (Mouse)); experiment: radioligand competition assay: inhibitor varied, 0.2 nM recombinant nidogen, 125I-laminin fragment P1
[3] = target: T1, recombinant nidogen (Mus musculus (Mouse)); experiment: radioligand competition assay, average of 14 separate assays: non-labeled fragment P1 varied, 0.2 nM recombinant nidogen, 125I-laminin fragment P1
[4] = target: T1, recombinant nidogen (Mus musculus (Mouse)); experiment: radioligand competition assay: non-labeled fragment P1 varied, 0.2 nM recombinant nidogen, 125I-laminin fragment P1
[5] = target: T1, recombinant nidogen (Mus musculus (Mouse)); experiment: as above; remark: listed apart in the source
[6] = target: T2, recombinant nidogen (Mus musculus (Mouse), UniProt P10493); experiment: radioligand competition assay: inhibitor varied, 0.2 nM recombinant nidogen, 125I-laminin fragment P1
T2 sequence: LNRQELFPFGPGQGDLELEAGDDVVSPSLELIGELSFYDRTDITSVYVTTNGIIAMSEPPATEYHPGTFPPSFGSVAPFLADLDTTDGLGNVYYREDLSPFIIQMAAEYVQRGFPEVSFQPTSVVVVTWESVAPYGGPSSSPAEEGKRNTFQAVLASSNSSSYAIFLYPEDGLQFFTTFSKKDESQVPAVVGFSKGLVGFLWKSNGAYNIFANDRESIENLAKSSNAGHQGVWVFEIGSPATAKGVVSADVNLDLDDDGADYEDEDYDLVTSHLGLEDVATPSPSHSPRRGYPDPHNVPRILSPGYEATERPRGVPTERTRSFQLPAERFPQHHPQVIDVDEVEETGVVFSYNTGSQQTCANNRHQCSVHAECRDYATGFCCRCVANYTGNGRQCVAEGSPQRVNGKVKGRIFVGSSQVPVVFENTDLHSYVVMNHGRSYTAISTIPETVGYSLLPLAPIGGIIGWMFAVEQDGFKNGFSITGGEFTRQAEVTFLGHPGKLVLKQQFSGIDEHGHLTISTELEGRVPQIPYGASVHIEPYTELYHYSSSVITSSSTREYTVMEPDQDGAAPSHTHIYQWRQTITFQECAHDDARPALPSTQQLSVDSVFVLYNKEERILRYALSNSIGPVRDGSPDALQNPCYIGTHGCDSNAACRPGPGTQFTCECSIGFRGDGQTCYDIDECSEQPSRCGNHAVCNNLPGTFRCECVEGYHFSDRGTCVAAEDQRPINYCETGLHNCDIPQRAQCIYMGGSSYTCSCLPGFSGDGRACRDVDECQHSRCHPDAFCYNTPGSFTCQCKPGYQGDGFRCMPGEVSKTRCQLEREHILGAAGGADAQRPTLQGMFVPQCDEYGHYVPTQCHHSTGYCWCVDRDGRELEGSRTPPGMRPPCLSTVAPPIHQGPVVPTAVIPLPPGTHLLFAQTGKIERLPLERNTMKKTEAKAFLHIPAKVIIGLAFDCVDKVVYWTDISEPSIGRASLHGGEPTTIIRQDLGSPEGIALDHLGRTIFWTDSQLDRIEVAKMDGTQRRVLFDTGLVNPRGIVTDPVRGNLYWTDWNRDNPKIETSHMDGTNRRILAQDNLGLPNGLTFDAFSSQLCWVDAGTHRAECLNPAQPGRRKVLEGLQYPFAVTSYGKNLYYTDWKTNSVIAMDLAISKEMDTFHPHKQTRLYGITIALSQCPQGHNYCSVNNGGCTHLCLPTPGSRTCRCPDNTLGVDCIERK
Protocol: (§1) A radioligand competition assay was used for measurement of relative binding affinities (Mann K. et al. (1988), Eur. J. Biochem., 178, 71–80; Fox, J. W. et al. (1991), EMBO J., 10, 3137–3146). A fixed concentration of recombinant nidogen (0.2 nM) was incubated overnight at 4° C. with inhibitors at varying concentrations, followed by the addition of ^125I-labeled laminin fragment P1 (0.01 nM; 10,000–20,000 c.p.m.) for the same incubation period. Bound and non-bound fragment P1 was then separated by antibodies against nidogen.

[7] = target: T2, recombinant nidogen; experiment: as above; remark: listed apart in the source
Protocol: as §1

[8] = target: T2, recombinant nidogen; experiment: radioligand competition assay, synthetic heptapeptide variant
Protocol: as §1

[9] = target: T1, recombinant nidogen (Mus musculus (Mouse)); experiment: as above
[10] = target: T2, recombinant nidogen; experiment: radioligand competition assay: inhibitor varied, 0.2 nM recombinant nidogen, 125I-laminin fragment P1; remark: listed apart in the source
Protocol: as §1

[11] = target: T2, recombinant nidogen; experiment: radioligand competition assay
Protocol: as §1

[12] = target: T2, recombinant nidogen; experiment: radioligand competition assay, nitrated γ1III3-5
Protocol: as §1

[13] = target: T2, recombinant nidogen; experiment: radioligand competition assay, reduced and alkylated against the non-reduced chimera
Protocol: as §1

[14] = target: T2, recombinant nidogen; experiment: radioligand competition assay, reduced and alkylated against the non-reduced mutant
Protocol: as §1

[15] = target: T2, recombinant nidogen; experiment: radioligand competition assay; end of the range tied to this mutant by its IC50 in Table IV
Protocol: as §1

IOPNAVGN (S, 799-806) (peptide)
fold loss in activity [1]: 2 fold

γ1III4ab3cd (from UniProt P02468)
fold higher activity than synthetic oxidized loop a,b [1]: 3 fold | further fold decrease in activity against modification of Tyr819 [1]: 30 fold | IC50 [2]: 80 nM

γ1III3-5Δ4 (from UniProt P02468)
IC50 [2]: > 3200 nM

T1, 792-809 (peptide)
IC50 [2]: 500 nM

synthetic loop a,b, non-oxidized (792-815) (peptide)
fold higher IC50 than fragment P1 [1]: 5000 fold | IC50 [2]: 400 nM

γ1III3ab4cd (from UniProt P02468)
IC50 [2]: 1100 nM

laminin fragment P1
IC50 [3]: 0.05 nM | IC50 [4]: 0.08 nM | IC50 [5]: 0.05 nM

NVDPNAV
IC50 [6]: 1200 nM

B1: γ1III4ab3cd, reduced (other)
chain: PC(Succinimide(1-Et,3-yl))QC(Succinimide(1-Et,3-yl))NDNIDPNAVGNC(Succinimide(1-Et,3-yl))NRLTGEC(Succinimide(1-Et,3-yl))LKC(Succinimide(1-Et,3-yl))PTGTAGKRC(Succinimide(1-Et,3-yl))ELC(Succinimide(1-Et,3-yl))DDGYFGDPLGSNGPVRLC(Succinimide(1-Et,3-yl))R
IC50 [7]: 520 nM

NIDPNVV
IC50 [6]: 16000 nM | fold decrease in activity against the heptapeptide NIDPNAV [8]: 16 fold

NINPNAV
IC50 [2]: 100000 nM | fold reduction in activity against the heptapeptide NIDPNAV [9]: 100 fold

B2: γ1III3-5, Lys acetylation (other)
chain: PCPCPGGSSCAIVPKTKEVVCTHCPTGTAGKRCELCDDGYFGDPLGSNGPVRLCRPCQCNDNIDPNAVGNCNRLTGECLKCIYNTAGFYCDRCKEGFFGNPLAPNPADKCKACACNPYGTVQQQSSCNPVTGQCQCLPHVSGRDCGTCDPGYYNLQSGQGCE
modifications: lysine amino groups acetylated with acetic acid anhydride
IC50 [10]: 0.27 nM | fold decrease in binding activity against unmodified γ1III3-5 [11]: 7 fold

B3: nitrated γ1III3-5 (other)
chain: PCPCPGGSSCAIVPKTKEVVCTHCPTGTAGKRCELCDDGYFGDPLGSNGPVRLCRPCQCNDNIDPNAVGNCNRLTGECLKCIYNTAGFYCDRCKEGFFGNPLAPNPADKCKACACNPYGTVQQQSSCNPVTGQCQCLPHVSGRDCGTCDPGYYNLQSGQGCE
modifications: tyrosines nitrated with tetranitromethane
IC50 [10]: 3 nM | fold decrease in binding activity against unmodified γ1III3-5 [12]: 75 fold

NVDPNAS
binding result [10]: no binding (tested: >160,000 nM)

NIDQNAV
IC50 [6]: 2400 nM | fold decrease in activity against the heptapeptide NIDPNAV [8]: 3 fold

B4: γ1III3ab4cd, reduced (other)
chain: PC(Succinimide(1-Et,3-yl))PC(Succinimide(1-Et,3-yl))PGGSSC(Succinimide(1-Et,3-yl))AIVPKTKEVVC(Succinimide(1-Et,3-yl))THC(Succinimide(1-Et,3-yl))IYNTAGFYC(Succinimide(1-Et,3-yl))DRC(Succinimide(1-Et,3-yl))KEGFFGNPLAPNPADKC(Succinimide(1-Et,3-yl))K
IC50 [7]: 6700 nM | fold decrease in activity on reduction and alkylation [13]: 6 fold

B5: γ1III4Y819/825-A, reduced (other)
chain: PC(Succinimide(1-Et,3-yl))QC(Succinimide(1-Et,3-yl))NDNIDPNAVGNC(Succinimide(1-Et,3-yl))NRLTGEC(Succinimide(1-Et,3-yl))LKC(Succinimide(1-Et,3-yl))IANTAGFAC(Succinimide(1-Et,3-yl))DRC(Succinimide(1-Et,3-yl))KEGFFGNPLAPNPADKC(Succinimide(1-Et,3-yl))K
IC50 [7]: 430 nM | fold decrease in activity on reduction and alkylation [14]: ~300 fold

B6: γ1III4 (other)
chain: PCQCNDNIDPNAVGNCNRLTGECLKCIYNTAGFYCDRCKEGFFGNPLAPNPADKCK
modifications: disulfide (positions not given here); not fully specified (bridges); also: four disulfide-bonded loops, pairing not given here
IC50 [7]: 0.05 nM

B7: γ1III4Y819-A (other)
chain: PCQCNDNIDPNAVGNCNRLTGECLKCIANTAGFYCDRCKEGFFGNPLAPNPADKCK
fold reduction in activity against wild-type γ1III4 [15]: 30 to 60 fold | IC50 [7]: 3 nM

B8: γ1III4Y819/825-A (other)
chain: PCQCNDNIDPNAVGNCNRLTGECLKCIANTAGFACDRCKEGFFGNPLAPNPADKCK
fold reduction in activity against wild-type γ1III4 [15]: 30 to 60 fold | IC50 [7]: 1.5 nM

B9: γ1III4Y825-A (other)
chain: PCQCNDNIDPNAVGNCNRLTGECLKCIYNTAGFACDRCKEGFFGNPLAPNPADKCK
IC50 [7]: 0.06 nM

B10: γ1III4D800-N (other)
chain: PCQCNDNINPNAVGNCNRLTGECLKCIYNTAGFYCDRCKEGFFGNPLAPNPADKCK
IC50 [7]: 1000 nM

NVDPSAS
binding result [10]: no binding (tested: >290,000 nM)

NIDPNAV [heptapeptide NIDPNAV (S, 798-804)]
IC50 [6]: 900 nM | IC50 [10]: 800 nM

PCQCNDNTDPNAVGNCNRLTGECL (disulfide (positions not given here)) [synthetic loop a,b, oxidized (792-815)]
IC50 [10]: 380 nM | IC50 [7]: 270 nM | fold higher IC50 than fragment P1 [11]: 5000 fold
